Measured values reported in patent US7329410.

Molecular target: Mouse MHC Class I (mouse B6 class I antigens; D^b or K^b molecules on the surface of RMA-S cells) (mouse)
Experiment: RMA-S cells incubated with peptide 25 ug/ml, stained with FITC anti-D^b or anti-K^b, flow cytometry; increase in MFI over medium alone

Row | Binder | Binding Affinity to Mouse MHC Class I (percent increase of D^b or K^b on RMA-S cells) [%]
1 | CMTWNQMNL [WT1 peptide p235-243 …] | 33.6
2 | SCLESQPAI [WT1 peptide human p136-144 …] | 52
3 | ALLPAVPSL [WT1 peptide human p10-18 …] | 2.2
4 | NLYQMTSQL [WT1 peptide p225-233 …] | 5.8
5 | GCNKRYFKL [WT1 peptide p329-337 …] | 1.2
6 | YSSDNLYQM [WT1 peptide p221-229 …] | 0.8
7 | QMTSQLECM [WT1 peptide p228-236 …] | 1.2
8 | NQMNLGATL [WT1 peptide p239-247 …] | 1

Molecular target: Mouse MHC Class I (mouse B6 class I antigens; D^b or K^b molecules on the surface of RMA-S cells) (mouse)
Experiment: binding of 9mer peptide to mouse B6 (H-2^b) class I antigens; RMA-S cell assay as for Table XLVII

Row | Binder | Binding Affinity to Mouse MHC Class I [%]
9 | PSQASSGQA [WT1 peptide P117-125 …] | 2
10 | SQASSGQAR [WT1 peptide P118-126 …] | 2
11 | QASSGQARM [WT1 peptide P119-127 …] | 2
12 | ASSGQARMF [WT1 peptide P120-128 …] | 1
13 | SSGQARMFP [WT1 peptide P121-129 …] | 1
14 | QARMFPNAP [WT1 peptide P124-132 …] | 1
15 | ARMFPNAPY [WT1 peptide P125-133 …] | 1
16 | MFPNAPYLP [WT1 peptide P127-135 …] | 2
17 | FPNAPYLPS [WT1 peptide P128-136 …] | 1
18 | PNAPYLPSC [WT1 peptide P129-137 …] | 1
19 | NAPYLPSCL [WT1 peptide P130-138 …] | 79
20 | APYLPSCLE [WT1 peptide P131-139 …] | 1
